Test results as given in patent US20250154261A1 (published 2025).
Where a chain is given by its changes, count along the chain named. Where two headings read alike, the source gives them in different places. Blank lines part the entries; values can stand above or below the binder they belong to.

Tests used:
Human CD33 R69G [1] = molecular target: T1, Human CD33 R69G (human, UniProt P20138 18-259); experiment: SPR captured Fab
Human CD33 S128N = Human CD33 S128N (human, UniProt P20138 18-259); experiment: SPR captured Fab
[2] = molecular target: T2, human CD33 (antigen of the BLI measurement, Table 11) (human, UniProt P20138 18-259, limits assumed); experiment: BLI, IgG on AHC
T2 construct: 100 nM antigen in solution; construct not described; whole entry named

V domain of human CD33 [3] = molecular target: T3, V domain of human CD33 (human, UniProt P20138 18-139, limits assumed); experiment: SPR captured Fab
T3 construct: Whole entry named; also called Human CD33 V domain

V domain of human CD33 [4] = molecular target: T3, V domain of human CD33; experiment: SPR captured Fab; remark: listed apart in the source
Human CD33 R69G [5] = molecular target: T1, Human CD33 R69G; experiment: SPR captured Fab; remark: listed apart in the source

B1: ADI-11807 Fab (Fab, V domains shown)
VH: EVQLVESGGGLVQPGGSLRLSCAASGFTFGSYWMSWVRQAPGKGLEWVATIKQDGSEKSYVDSVKGRFTISRDNAKNSLYLQMNSLRAEDTAVYYCARPLNAGELDVWGQGTMVTVSS
VL: DIQMTQSPSTLSASVGDRVTITCRASQSISSWLAWYQQKPGKAPKLLIYEASSLESGVPSRFSGSGSGTEFTLTISSLQPDDFATYYCQQSQSYPPITFGGGTKVEIK
notes: Fab fragment; also called Ab5; I07
Kd (Human CD33 R69G [1]): 0.43 nM
koff (Human CD33 R69G [1]): 0.000259 s⁻¹
kon (Human CD33 R69G [1]): 597000 M⁻¹ s⁻¹

B3: ADI-11802 Fab (Fab, V domains shown)
VH: QVQLVQSGAEVKKPGASVKVSCKASGYTFSGYYMHWVRQAPGQGLEWMGMINPYGGSTRYAQKFQGRVTMTRDTSTSTVYMELSSLRSEDTAVYYCAREAADGFVGERYFDLWGRGTLVTVSS
VL: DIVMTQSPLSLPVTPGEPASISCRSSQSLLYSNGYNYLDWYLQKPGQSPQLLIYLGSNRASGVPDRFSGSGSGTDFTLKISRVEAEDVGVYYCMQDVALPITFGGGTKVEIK
notes: Fab fragment; also called Ab23
Kd (Human CD33 S128N): 0.809 nM
koff (Human CD33 S128N): 0.00059 s⁻¹
kon (Human CD33 S128N): 662000 M⁻¹ s⁻¹

B4: ADI-10164 Fab (Fab, V domains shown)
VH: QVQLQESGPGLVKPSETLSLTCAVSGYSISSGYYWGWIRQPPGKGLEWIGSIYHSGSTNYNPSLKSRVTISVDTSKNQFSLKLSSVTAADTAVYYCARLPPWFGFSYFDLWGRGTLVTVSS
VL: EIVLTQSPATLSLSPGERATLSCRASQSVSSYLAWYQQKPGQAPRLLIYDASNRATGIPARFSGSGSGTDFTLTISSLEPEDFAVYYCQQVDNYPPTFGGGTKVEIK
notes: Fab fragment; also called Ab18
Kd (Human CD33 R69G [1]): 113 nM
koff (Human CD33 R69G [1]): 0.035 s⁻¹
kon (Human CD33 R69G [1]): 308000 M⁻¹ s⁻¹
Kd (Human CD33 S128N): 279 nM
koff (Human CD33 S128N): 0.0539 s⁻¹
kon (Human CD33 S128N): 193000 M⁻¹ s⁻¹

B5: ADI-10159 IgG (antibody, V domains shown)
VH: EVQLVESGGGLVQPGGSLRLSCAASGFTFSSYGMSWVRQAPGKGLEWVANIKQDGSEKYYVDSVKGRFTISRDNAKNSLYLQMNSLRAEDTAVYYCAREGGPYYDSSGYFVYYGMDVWGQGTTVTVSS
VL: DIQMTQSPSTLSASVGDRVTITCRASQSISSWLAWYQQKPGKAPKLLIYDASSLESGVPSRFSGSGSGTEFTLTISSLQPDDFATYYCQQYESFPTFGGGTKVEIK
notes: IgG; also called Ab1; G59
Kd [2]: 0.58 nM
koff [2]: 0.0002 s⁻¹

B9: ADI-11826 Fab (Fab, V domains shown)
VH: EVQLVESGGGLVQPGGSLRLSCAASGFTFPGYWMSWVRQAPGKGLEWVANINQDGSEVYYVDSVKGRFTISRDNAKNSLYLQMNSLRAEDTAVYYCAREANYYGNVGDDYWGQGTLVTVSS
VL: DIQMTQSPSSLSASVGDRVTITCRASQSIYNYLNWYQQKPGKAPKLLIYAASSTQSGVPSRFSGSGSGTDFTLTISSLQPEDFATYYCQQAFHVPITFGGGTKVEIK
notes: Fab fragment; also called Ab26
koff (V domain of human CD33 [3]): 0.00225 s⁻¹
koff (V domain of human CD33 [4]): 0.00225 s⁻¹
Kd (Human CD33 R69G [1]): 3.83 nM
koff (Human CD33 R69G [1]): 0.00723 s⁻¹
kon (Human CD33 R69G [1]): 1.89e+06 M⁻¹ s⁻¹
Kd (Human CD33 S128N): 2.65 nM
koff (Human CD33 S128N): 0.00574 s⁻¹
kon (Human CD33 S128N): 2.17e+06 M⁻¹ s⁻¹

B10: ADI-11828 Fab (Fab, V domains shown)
VH: EVQLVESGGGLVQPGGSLRLSCAASGFTFSSYWMSWVRQAPGKGLEWVANINQDGSEVYYVDSVKGRFTISRDNAKNSLYLQMNSLRAEDTAVYYCARDVGPGIAYQGHFDYWGQGTLVTVSS
VL: B9 VL with N31Y, T54R, A91V, F92Y, H93D, V94T, I96L
notes: Fab fragment; also called Ab27
Kd (Human CD33 R69G [1]): 6.03 nM
koff (Human CD33 R69G [1]): 0.007 s⁻¹
kon (Human CD33 R69G [1]): 1.16e+06 M⁻¹ s⁻¹
Kd (Human CD33 S128N): 5.41 nM
koff (Human CD33 S128N): 0.00742 s⁻¹
kon (Human CD33 S128N): 1.37e+06 M⁻¹ s⁻¹

B13: ADI-10160 Fab (Fab, V domains shown)
VH: B9 VH with P30S, G31S, V58K
VL: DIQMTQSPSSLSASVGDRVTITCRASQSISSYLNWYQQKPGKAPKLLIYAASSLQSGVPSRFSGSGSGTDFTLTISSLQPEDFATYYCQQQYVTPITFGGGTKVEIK
notes: Fab fragment; also called Ab15
Kd (Human CD33 R69G [1]): 63.7 nM
koff (Human CD33 R69G [1]): 0.0533 s⁻¹
kon (Human CD33 R69G [1]): 836000 M⁻¹ s⁻¹
Kd (Human CD33 S128N): 85.7 nM
koff (Human CD33 S128N): 0.0673 s⁻¹
kon (Human CD33 S128N): 786000 M⁻¹ s⁻¹

B14: ADI-11815 Fab (Fab, V domains shown)
VH: QVQLVQSGAEVKKPGASVKVSCKASGYTFGTYYMHWVRQAPGQGLEWMGIINPSRGSTVYAQKFQGRVTMTRDTSTSTVYMELSSLRSEDTAVYYCARGAGYDDEDMDVWGKGTTVTVSS
VL: DIQMTQSPSSVSASVGDRVTITCRASQGIDSWLAWYQQKPGKAPKLLIYAASSLQSGVPSRFSGSGSGTDFTLTISSLQPEDFATYYCQQAHSYPLTFGGGTKVEIK
notes: Fab fragment; also called Ab7
Kd (Human CD33 R69G [1]): 4.34 nM
koff (Human CD33 R69G [1]): 0.0013 s⁻¹
kon (Human CD33 R69G [1]): 300000 M⁻¹ s⁻¹
Kd (Human CD33 R69G [5]): 4.34 nM
koff (Human CD33 R69G [5]): 0.0013 s⁻¹
kon (Human CD33 R69G [5]): 300000 M⁻¹ s⁻¹

B15: ADI-11839 Fab (Fab, V domains shown)
VH: QVQLVQSGAEVKKPGASVKVSCKASGYTFSNYYMHWVRQAPGQGLEWMGWINPFSGGTRYAQKFQGRVTMTRDTSTSTVYMELSSLRSEDTAVYYCARDVGSSAYYYMDVWGKGTTVTVSS
VL: B14 VL with R24E, Q27K, D30S, S53D, H92F, S93L, Y94F, L96P
notes: Fab fragment; also called Ab28
Kd (Human CD33 S128N): 29.5 nM
koff (Human CD33 S128N): 0.0284 s⁻¹
kon (Human CD33 S128N): 963000 M⁻¹ s⁻¹

B16: ADI-10161 Fab (Fab, V domains shown)
VH: EVQLVESGGGLVQPGGSLRLSCAASGFTFSSYWMSWVRQAPGKGLEWVANINQDGSEKYYVDSVKGRFTISRDNAKNSLYLQMNSLRAEDTAVYYCAREGGDSWYHAFDIWGQGTMVTVSS
VL: B14 VL with D30S, S53N, A91K, H92L, Y94L
notes: Fab fragment; also called Ab16
Kd (Human CD33 R69G [1]): 48.9 nM
koff (Human CD33 R69G [1]): 0.0307 s⁻¹
kon (Human CD33 R69G [1]): 629000 M⁻¹ s⁻¹
Kd (Human CD33 S128N): 63.6 nM
koff (Human CD33 S128N): 0.0385 s⁻¹
kon (Human CD33 S128N): 605000 M⁻¹ s⁻¹

More lines, in order of falling Kd (Human CD33 R69G [1]), values ahead:

Kd (Human CD33 R69G [1]): 17.8 nM
koff (Human CD33 R69G [1]): 0.0287 s⁻¹
kon (Human CD33 R69G [1]): 1.56e+06 M⁻¹ s⁻¹
Kd (Human CD33 S128N): 163 nM
koff (Human CD33 S128N): 0.00924 s⁻¹
kon (Human CD33 S128N): 56500 M⁻¹ s⁻¹
B19: ADI-10157 Fab (Fab, V domains shown)
VH: QVQLQESGPGLVKPSETLSLTCTVSGGSISSYYWSWIRQPPGKGLEWIGSIYYSGSTNYNPSLKSRVTISVDTSKNQFSLKLSSVTAADTAVYYCARVGGVYSTIETYGMDVWGQGTTVTVSS
VL: EIVMTQSPATLSVSPGERATLSCRASQSVSSNLAWYQQKPGQAPRLLIYGASTRATGIPARFSGSGSGTEFTLTISSLQSEDFAVYYCQQYTVYPPTFGGGTKVEIK
notes: Fab fragment; also called Ab13

Kd (Human CD33 R69G [1]): 6.74 nM
koff (Human CD33 R69G [1]): 0.00228 s⁻¹
kon (Human CD33 R69G [1]): 338000 M⁻¹ s⁻¹
Kd (Human CD33 S128N): 2.01 nM
koff (Human CD33 S128N): 0.00112 s⁻¹
kon (Human CD33 S128N): 556000 M⁻¹ s⁻¹
B17: ADI-11812 Fab (Fab, V domains shown)
VH: B14 VH with G30E, T31I, R55S
VL: B14 VL
notes: Fab fragment; also called Ab24

Kd (Human CD33 R69G [1]): 5.68 nM
koff (Human CD33 R69G [1]): 0.00243 s⁻¹
kon (Human CD33 R69G [1]): 426000 M⁻¹ s⁻¹
B6: ADI-10159 Fab (Fab, V domains shown)
VH: B5 VH
VL: B5 VL
notes: Fab fragment; also called Ab1; G59

Kd (Human CD33 R69G [1]): 3.74 nM
koff (Human CD33 R69G [1]): 0.00695 s⁻¹
kon (Human CD33 R69G [1]): 1.86e+06 M⁻¹ s⁻¹
Kd (Human CD33 S128N): 3.09 nM
koff (Human CD33 S128N): 0.00649 s⁻¹
kon (Human CD33 S128N): 2.1e+06 M⁻¹ s⁻¹
B12: ADI-11825 Fab (Fab, V domains shown)
VH: B9 VH with P30G, V58E
VL: B9 VL with S53N, T54L, Q55H
notes: Fab fragment; also called Ab25

Kd (Human CD33 R69G [1]): 2.94 nM
koff (Human CD33 R69G [1]): 0.00663 s⁻¹
kon (Human CD33 R69G [1]): 2.27e+06 M⁻¹ s⁻¹
B11: ADI-11830 Fab (Fab, V domains shown)
VH: B10 VH with Q53T
VL: B9 VL with S28V, N31S, T54L, Q55K, A91V, F92Y, H93D, V94T, I96L
notes: Fab fragment; also called Ab9

Kd (Human CD33 R69G [1]): 0.67 nM
koff (Human CD33 R69G [1]): 0.00205 s⁻¹
kon (Human CD33 R69G [1]): 3.07e+06 M⁻¹ s⁻¹
B18: ADI-11835 Fab (Fab, V domains shown)
VH: QLQLQESGPGLVKPSETLSLTCTVSGGSISSTDYYWGWIRQPPGKGLEWIGSIGYSGTYYNPSLKSRVTISVDTSKNQFSLKLSSVTAADTAVYYCARETAHDVHGMDVWGQGTTVTVSS
VL: EIVLTQSPATLSLSPGERATLSCRASHSVYSYLAWYQQKPGQAPRLLIYDASNRATGIPARFSGSGSGTDFTLTISSLEPEDFAVYYCQQYDNLPTFGGGTKVEIK
notes: Fab fragment; also called Ab10; 135 (so in the source)

Kd (Human CD33 R69G [1]): 0.22 nM
koff (Human CD33 R69G [1]): 0.000179 s⁻¹
kon (Human CD33 R69G [1]): 815000 M⁻¹ s⁻¹
B2: ADI-11809 Fab (Fab, V domains shown)
VH: B1 VH with G30P, Q53R, S59G
VL: B1 VL
notes: Fab fragment; also called Ab6

koff (V domain of human CD33 [3]): 0.0143 s⁻¹
koff (V domain of human CD33 [4]): 0.0143 s⁻¹
Kd (Human CD33 R69G [1]): 0.22 nM
koff (Human CD33 R69G [1]): 0.000426 s⁻¹
kon (Human CD33 R69G [1]): 1.98e+06 M⁻¹ s⁻¹
B7: ADI-11776 Fab (Fab, V domains shown)
VH: EVQLLESGGGLVQPGGSLRLSCAASGFTFSKYTMSWVRQAPGKGLEWVSAIVGSGESTYFADSVKGRFTISRDNSKNTLYLQMNSLRAEDTAVYYCAREGGPYYDSSGYFVYYGMDVWGQGTTVTVSS
VL: B5 VL with D50K, E92D, S93D, F94L
notes: Fab fragment; also called Ab3; H76

Kd (Human CD33 R69G [1]): 0.09 nM
koff (Human CD33 R69G [1]): 0.000244 s⁻¹
kon (Human CD33 R69G [1]): 2.78e+06 M⁻¹ s⁻¹
B8: ADI-11819 Fab (Fab, V domains shown)
VH: EVQLVESGGGLVKPGGSLRLSCAASGFTFSSYAMSWVRQAPGKGLEWVSSISSSSEGIYYADSVKGRFTISRDNAKNSLYLQMNSLRAEDTAVYYCAREGGPYYDSSGYFVYYGMDVWGQGTTVTVSS
VL: B5 VL with Q27N, D50E, L54T, E55K, E92D, S93D, F94L
notes: Fab fragment; also called Ab8
